The record followed here is patent US20190202883A1 (Takeda / Millennium, published 2019).

Square brackets hold non-standard residues; d marks the D form. Side chains are listed from the residue outwards. αMeF = C[C@](N)(Cc1ccccc1)C(=O)O; Iva = CC[C@](C)(N)C(=O)O; Oda = not defined here; Aib = CC(C)(N)C(=O)O

Test in all cases: cell-based or functional assay
One experiment concerns the target T1, human GIPR (human, UniProt P48546 22-466).
T1 sequence (looked up): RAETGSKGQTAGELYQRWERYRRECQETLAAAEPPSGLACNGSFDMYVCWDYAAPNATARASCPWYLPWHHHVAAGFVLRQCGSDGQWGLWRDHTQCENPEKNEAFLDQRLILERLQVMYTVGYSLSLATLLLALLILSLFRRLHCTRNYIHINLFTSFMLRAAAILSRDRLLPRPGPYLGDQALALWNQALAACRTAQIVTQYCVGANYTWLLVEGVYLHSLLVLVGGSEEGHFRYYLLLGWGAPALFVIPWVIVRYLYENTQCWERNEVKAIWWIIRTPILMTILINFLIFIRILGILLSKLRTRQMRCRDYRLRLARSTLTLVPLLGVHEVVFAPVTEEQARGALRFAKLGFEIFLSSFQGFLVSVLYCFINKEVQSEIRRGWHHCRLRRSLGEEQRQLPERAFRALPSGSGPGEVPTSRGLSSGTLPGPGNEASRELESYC

The next experiment addresses human GLP-1R (human, UniProt P43220 24-463).
The target in the next experiment is T2, human NPY2R (human, UniProt P49146 1-381).
T2 sequence (looked up): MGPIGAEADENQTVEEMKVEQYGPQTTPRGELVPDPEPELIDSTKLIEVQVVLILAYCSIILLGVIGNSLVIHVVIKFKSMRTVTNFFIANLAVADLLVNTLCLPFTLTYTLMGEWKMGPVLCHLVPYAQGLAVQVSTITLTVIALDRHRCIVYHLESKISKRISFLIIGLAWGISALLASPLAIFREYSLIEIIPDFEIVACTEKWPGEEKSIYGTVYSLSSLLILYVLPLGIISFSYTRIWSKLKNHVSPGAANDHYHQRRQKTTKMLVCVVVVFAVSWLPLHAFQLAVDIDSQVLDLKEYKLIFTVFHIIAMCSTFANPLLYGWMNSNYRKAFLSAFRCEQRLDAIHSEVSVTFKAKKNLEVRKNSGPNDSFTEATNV

B1: Me-Tyr-Aib-Glu-Gly-Thr-αMePhe-Thr-Ser-Asp-Lys(-Gly-Gly-Gly-Gly-Oda)-Ser-Lys-Aib-Leu-Asp-Lys-Gln-Arg-Gln-Iva-Glu-Phe-Val-Arg-His-Leu-Leu-Asn-Lys-Aib-Thr-Arg-Gln- … (peptide)
peptide: Me-Y[Aib]EGT[αMeF]TSDK([Gly-Gly-Gly-Gly-Oda])SK[Aib]LDKQRQ[Iva]EFVRHLLNK[Aib]TRQRY-NH2
modifications: reading uncertain; also: printed as Me-Tyr-Aib-Glu-Gly-Thr-αMePhe-Thr-Ser-Asp-Lys(-Gly-Gly-Gly-Gly-Oda)-Ser-Lys-Aib-Leu-Asp-Lys-Gln-Arg-Gln-Iva-Glu-Phe-Val-Arg-His-Leu-Leu-Asn-Lys-Aib-Thr-Arg-Gln-Arg-Tyr-NH2
Take B1: the “Agonist activity (EC50), Cre-luc reporter assay” value (from here on “Agonist activity (EC50)”) in the experiment with human GIPR came to 380 pM; with human GLP-1R, 4500 pM; with human NPY2R, 1200 pM.

In the case of Me-Y[Aib]EGT[αMeF]TSDK([Gly-Gly-Gly-Gly-Pal])SK[Aib]LDKQRQ[Iva]EFVRHLLNK[Aib]TRQRY-NH2, the “Agonist activity (EC50)” value with human GIPR worked out at 48 pM; with human GLP-1R, 73 pM; with human NPY2R it was 20 pM.

Regarding Me-Y[Aib]EGT[αMeF]TSDK([Gly-Gly-Gly-Gly-Pal])[Aib]I[Aib]LDKQAQ[Iva]EFVRHLLNK[Aib]TRQRY-NH2, the “Agonist activity (EC50)” value worked out at 38 pM with human GIPR, 43 pM in the experiment with human GLP-1R and 30 pM in the experiment with human NPY2R.

B2: H-Tyr-Aib-Glu-Gly-Thr-αMePhe-Thr-Ser-Asp-Lys(-Gly-Gly-Gly-Gly-Oda)-Aib-Ile-Aib-Leu-Glu-Lys-Gln-Arg-Gln-Iva-Glu-Phe-Val-Arg-His-Leu-Leu-Asn-Lys-Aib-Thr-Arg-Gln-A … (peptide)
peptide: H-Y[Aib]EGT[αMeF]TSDK([Gly-Gly-Gly-Gly-Oda])[Aib]I[Aib]LEKQRQ[Iva]EFVRHLLNK[Aib]TRQRY-NH2
modifications: reading uncertain; also: printed as H-Tyr-Aib-Glu-Gly-Thr-αMePhe-Thr-Ser-Asp-Lys(-Gly-Gly-Gly-Gly-Oda)-Aib-Ile-Aib-Leu-Glu-Lys-Gln-Arg-Gln-Iva-Glu-Phe-Val-Arg-His-Leu-Leu-Asn-Lys-Aib-Thr-Arg-Gln-Arg-Tyr-NH2
As to B2, the “Agonist activity (EC50)” value is 520 pM with human GIPR, 250 pM with human GLP-1R and 2700 pM with human NPY2R.

Take Me-Y[Aib]EGT[αMeF]TSDK([Gly-Gly-Gly-Gly-Pal])[Aib]I[Aib]LEKQRQ[Iva]EFVRHLLNK[Aib]TRQRY-NH2: the “Agonist activity (EC50)” value with human GIPR amounted to 82 pM; with human GLP-1R, 130 pM; in the experiment with human NPY2R it was 67 pM.

As to H-Y[Aib]EGT[αMeF]TSDK([Gly-Gly-Gly-Gly-Pal])[Aib]I[Aib]LDKQAQ[Iva]EFVRHLLNK[Aib]TRQRY-NH2, the “Agonist activity (EC50)” value with human GIPR came out at 41 pM; in the experiment with human GLP-1R, 42 pM; with human NPY2R, 38 pM.

Regarding H-Y[Aib]EGT[αMeF]TSDK([Gly-Gly-Gly-Gly-Pal])[Aib]I[Aib]LEKQRQ[Iva]EFVRHLLNK[Aib]TRQRY-NH2, the “Agonist activity (EC50)” value in the experiment with human GIPR is 49 pM; with human GLP-1R, 61 pM; in the experiment with human NPY2R it was 57 pM.

B3: H-Tyr-Aib-Glu-Gly-Thr-αMePhe-Thr-Ser-Asp-Lys(-Gly-Gly-Gly-Gly-Oda)-Aib-Ile-Aib-Leu-Asp-Lys-Gln-Ala-Gln-Iva-Glu-Phe-Val-Arg-His-Leu-Leu-Asn-Lys-Aib-Thr-Arg-Gln-A … (peptide)
peptide: H-Y[Aib]EGT[αMeF]TSDK([Gly-Gly-Gly-Gly-Oda])[Aib]I[Aib]LDKQAQ[Iva]EFVRHLLNK[Aib]TRQRY-NH2
modifications: reading uncertain; also: printed as H-Tyr-Aib-Glu-Gly-Thr-αMePhe-Thr-Ser-Asp-Lys(-Gly-Gly-Gly-Gly-Oda)-Aib-Ile-Aib-Leu-Asp-Lys-Gln-Ala-Gln-Iva-Glu-Phe-Val-Arg-His-Leu-Leu-Asn-Lys-Aib-Thr-Arg-Gln-Arg-Tyr-NH2
Turning to B3, the “Agonist activity (EC50)” value in the experiment with human GIPR was 74 pM; with human GLP-1R it was 78 pM; in the experiment with human NPY2R, 2400 pM.

B4: Me-Tyr-Aib-Glu-Gly-Thr-αMePhe-Thr-Ser-Asp-Lys(-Gly-Gly-Gly-Gly-Oda)-Aib-Ile-Aib-Leu-Asp-Lys-Gln-Ala-Gln-Iva-Glu-Phe-Val-Arg-His-Leu-Leu-Asn-Lys-Aib-Thr-Arg-Gln- … (peptide)
peptide: Me-Y[Aib]EGT[αMeF]TSDK([Gly-Gly-Gly-Gly-Oda])[Aib]I[Aib]LDKQAQ[Iva]EFVRHLLNK[Aib]TRQRY-NH2
modifications: reading uncertain; also: printed as Me-Tyr-Aib-Glu-Gly-Thr-αMePhe-Thr-Ser-Asp-Lys(-Gly-Gly-Gly-Gly-Oda)-Aib-Ile-Aib-Leu-Asp-Lys-Gln-Ala-Gln-Iva-Glu-Phe-Val-Arg-His-Leu-Leu-Asn-Lys-Aib-Thr-Arg-Gln-Arg-Tyr-NH2
For the molecule B4, the results for the “Agonist activity (EC50)” value in the experiment with human GIPR, with human GLP-1R and with human NPY2R were 74 pM, 150 pM and 3300 pM, respectively.
